Assay results published in the supplement of paper PMC10567573.

B1: EPB41L3 (parent)
chain: GSKFRYSGRTQAQTRRASALIDRP

Variants of: B1
Experiment: protein stability index of a GFP-peptide fusion (GPS, HEK-293T) (PSI 1-6); higher = more stable
Details: c terminus: a fixed tail appended
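Also: lentivirally expressed fusions sorted by FACS into six bins by GFP to DsRed ratio, PSI derived from sequencing read proportions per bin multiplied by bin number.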

Protein stability index, by site and new letter:
R23: P 3.02 | C 2.89 | T 2.58 | H 3.16 | K 2.94
Q13: R 3.25 | H 2.65 | S 3.27 | D 3.08 | V 3.53 | P 2.69 | L 2.91 | G 3.49 | E 3.27 | T 2.73
K3: C 1.75 | A 2.02 | S 2.64 | Q 2.96 | D 2.5 | W 2.46 | P 2.04 | R 2.83
S18: V 2.85 | Q 3.19 | L 3.01 | K 3.29 | P 3.73 | A 3.02
T14: A 3.25 | Y 2.73 | H 2.77 | D 3.41 | S 2.67 | I 2.69 | Q 2.81 | L 2.7
G8: S 3.46 | A 3.41 | D 3.02 | E 3.52 | P 3.43 | W 2.1 | Y 2.7 | V 3.07 | M 3.88
I21: R 3.71 | H 3.32 | G 3.9 | M 3.6 | T 3.21 | S 3 | E 3.4 | F 2.97
A12: Y 2.89 | N 3.08 | F 2.04
T10: V 2.84 | N 3.19 | D 3.56 | Q 3.1 | C 1.97 | G 3.66
R15: G 2.81 | P 3.3 | F 2.44 | S 2.81 | L 2.64
R5: K 2.73 | S 3.8 | Q 3.26 | M 4.43 | D 3.74 | T 3.59
P24: S 2.8 | N 2.8 | A 2.57 | F 3.05 | K 3.44 | G 3.32 | M 3 | Q 2.79 | W 2.32
G1: L 2.53 | M 2.58 | I 2.53 | W 2.33 | C 2.88 | H 3.03 | Y 1.85
R9: E 3.53 | M 2.85 | I 2.81 | T 3.01 | P 3.87
R16: I 2.72 | W 2.41 | M 2.67 | T 3.4 | G 3.87 | F 2.9 | V 2.34 | K 2.83 | A 2.63 | N 3.42
A19: K 3.39 | C 2.74 | F 2.41 | H 3.26 | P 2.68 | T 3.3 | M 3.07
F4: M 3.48 | K 4.62 | I 4 | L 3.95 | H 3.83 | P 3.47 | Y 3.56 | V 4.28
Q11: F 2.45 | D 3.09 | M 1.94 | P 3.46 | C 2.6 | K 3.11
A17: D 3.41 | V 2.66 | K 3.16 | E 3.54 | Y 2.54 | Q 3.58
L20: R 3.28 | W 3.23 | E 3.89 | C 3.12 | K 3.79
S7: P 3.36 | H 2.94 | K 3.79 | R 3.73 | A 2.91 | N 3.05 | T 2.95
D22: K 2.7 | M 2.69 | S 3.11 | W 2.72 | H 3.7 | C 2.99 | V 2.66 | P 3.09
Y6: Q 3.71 | F 2.96 | L 3.15 | I 3.62 | V 3.86 | W 3.49 | P 3.68 | A 3.85 | N 3.67 | G 3.91
S2: N 2.6 | A 2.66 | P 2.6 | K 3.56 | D 4.02
